From paper PMC8424379 (2021) come the findings set out here.

In this test the target is Raf2 fused to Gal4 DNA-binding domain (UniProt O74560). The test can be described thus: yeast two-hybrid (β-galactosidase). The following applies: Ccq1 fused to Gal4 activation domain, read off a plot.
Chain of Raf2 fused to Gal4 DNA-binding domain (O74560 whole entry, the tested form may be a part): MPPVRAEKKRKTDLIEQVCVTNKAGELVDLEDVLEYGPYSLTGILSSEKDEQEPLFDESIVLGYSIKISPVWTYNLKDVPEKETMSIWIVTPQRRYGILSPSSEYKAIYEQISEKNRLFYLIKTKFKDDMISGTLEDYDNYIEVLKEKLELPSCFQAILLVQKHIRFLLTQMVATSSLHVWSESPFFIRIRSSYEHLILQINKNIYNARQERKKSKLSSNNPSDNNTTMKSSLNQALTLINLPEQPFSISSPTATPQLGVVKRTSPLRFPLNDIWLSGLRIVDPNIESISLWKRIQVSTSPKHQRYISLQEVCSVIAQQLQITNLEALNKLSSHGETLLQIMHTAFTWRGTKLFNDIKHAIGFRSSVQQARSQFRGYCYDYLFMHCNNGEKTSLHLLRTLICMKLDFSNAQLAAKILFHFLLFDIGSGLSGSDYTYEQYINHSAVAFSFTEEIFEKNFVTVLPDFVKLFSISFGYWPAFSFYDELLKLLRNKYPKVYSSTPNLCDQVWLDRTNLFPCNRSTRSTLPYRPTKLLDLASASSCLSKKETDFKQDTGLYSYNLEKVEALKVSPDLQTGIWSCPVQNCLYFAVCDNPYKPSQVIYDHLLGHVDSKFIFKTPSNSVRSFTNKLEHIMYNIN

Chain of Ccq1_(496–583), Raf2-binding motif of Ccq1, fused to Gal4 activation domain (Q10432 496-583, stated change not applied): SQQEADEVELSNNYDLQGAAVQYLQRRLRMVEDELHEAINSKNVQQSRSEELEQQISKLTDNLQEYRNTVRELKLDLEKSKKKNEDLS

“Ccq1_(496–583), Raf2-binding motif of Ccq1, fused to Gal4 activation domain (from UniProt Q10432) V570R” gave a response of 80.
